Test results taken from PMC10127577.

Key:
[1] = biological target: cleaved, mature CDTb (from limited trypsinization of proCDTb) (Clostridioides difficile); assay: negative-stain electron microscopy
[2] = biological target: cleaved, mature CDTb (from limited trypsinization of proCDTb) (Clostridioides difficile); assay: SEC; CDTb oligomerization assay: 500 μg proCDTb at 1 mg/mL, untreated or with trypsin 1:20 (wt/wt) at 37°C for 20 min, with buffer or 2-fold molar excess of Fab; Superdex 200 Increase 10/300 GL in 20 mM Tris pH 8, 100 mM NaCl, 6 mM CaCl2

cleaved, mature CDTb (from limited trypsinization of proCDTb) (natural protein)
stoichiometry N [1]: 14 | percent of cleaved CDTb oligomerized [2]: 5%
